Data on two compounds can be found in US9403875B2, “Cage-like bifunctional chelators, copper-64 radiopharmaceuticals and PET imaging using the same” (UNIVERSITY OF SOUTHERN CALIFORNIA, priority 2009, dated 2016).

The subject of data set [1] is U87 MG human glioblastoma cell line (integrin αvβ3-positive). The data set can be described thus: Cell uptake study in U87 MG cells. The conditions noted are these: blocking with excess cold cyclic RGD. Type of data set: cell-based. How it is done: U87 MG human glioblastoma cell line (integrin αvβ3-positive) was obtained from the American Type Culture Collection (ATCC, Manassas, Va.) and maintained under standard conditions according to ATCC as following: The U87 MG glioma cells were grown in Gibco's Dulbecco's medium supplemented with 10% fetal bovine serum (FBS), 100 IU/mL penicillin, and 100 μg/mL streptomycin (Invitrogen Co, Carlsbad, Calif.), at 37° C. in humidified atmosphere containing 5% CO2. The U87 MG glioma cells were grown in culture until sufficient cells were available.
The cell uptake study was performed as described in the literature with some modifications. […] The tumor cells were then washed three times with chilled PBS and harvested by 0.1 N NaOH solution containing 0.5% sodium dodecyl sulfate (SDS). The cell suspensions were collected and measured in the gamma counter.

Data set [2] in a line: MicroPET imaging of U87 MG tumor-bearing nude mice. It is filed as in vivo, athymic nude mice. The conditions noted are these: athymic nude, mouse, in vivo, iv, 11.1 MBq, total radioactivity. On the procedure: (§1) Athymic nude mice (about 10-20 weeks old, with a body weight of 25-35 g) were obtained from Harlan (Charles River, Mass.). All animal experiments were performed according to a protocol approved by University of Southern California Institutional Animal Care and Use Committee. The U87 MG human glioma xenograft model was generated by subcutaneous injection of 5×10^6 U87 MG human glioma cells into the front flank of athymic nude mice. The tumors were allowed to grow 3-5 weeks until 200-500 mm^3 in volume. Tumor growth was followed by caliper measurements of the perpendicular dimensions.
(§2) MicroPET scans and imaging analysis were performed using a rodent scanner (microPET R4; Siemens Medical Solutions) as previously reported (26). Li, Z., Cai, W., Cao, Q., Chen, K., Wu, Z., He, L., and Chen, X. (2007) ^64Cu-labeled tetrameric and octameric RGD peptides for small-animal PET of tumor αvβ3 integrin expression. J Nucl Med 48, 1162-71. […] Ten minute static scans were acquired at 1, 2, 4, and 20 h post injection. The images were reconstructed by a 2-dimensional ordered-subsets expectation maximum (OSEM) algorithm. For each microPET scan, regions of interest were drawn over the tumor, normal tissue, and major organs on the decay-corrected whole-body coronal images. The radioactivity concentration (accumulation) within the tumor, muscle, liver, and kidneys were obtained from the mean value within the multiple regions of interest and then converted to % ID/g.

In data set [3] the test system is U87 MG human glioma xenograft tumors. The data set can be described thus: MicroPET imaging of U87 MG tumor-bearing nude mice. Type of data set: in vivo, athymic nude mice. As to conditions: for uptake in U87 MG tumors: microPET. On the procedure: as §1, §2
A short description of data set [4]: Biodistribution by direct tissue sampling in U87 MG tumor bearing nude mice. As to conditions: athymic nude, mouse, in vivo, 0.37 MBq, total radioactivity. How it is done: All mice were sacrificed and dissected at 20 h after the injection of the tracers. Blood, U87 MG tumor, major organs, and tissues were collected and weighed wet. The radioactivity in the tissues was measured using the gamma counter. The results were presented as percentage injected dose per gram of tissue (% ID/g). For each mouse, the radioactivity of the tissue samples was calibrated against a known aliquot of the injected activity. Mean uptake (% ID/g) for each group of animals was calculated with standard deviations.
To validate the accuracy of small animal PET quantification, we also performed a biodistribution experiment by using the direct tissue sampling technique. The data shown as the percentage administered activity (injected dose) per gram of tissue (% ID/g) in FIG. 19A. Both ^64Cu-AmBaSar-RGD and ^64Cu-DOTA-RGD mainly accumulated in kidneys, liver, stomach, intestine, and tumor. […] This difference was consistent with the excretion pattern from the microPET imaging results.

Data set [5] can be described thus: Lipophilicity (octanol/water partition coefficient) of 64Cu-AmBaSar and 64Cu-DOTA. It is filed as physicochemical. The conditions noted are these: 1-octanol/PBS, pH 7.4. How it is done: Information about the lipophilicity of the ^64Cu-AmBaSar and ^64Cu-DOTA was obtained by measuring their partitioning in a 1-octanol/water system. Counts in samples were used to determine partition coefficients (log P) values, calculated using a known formula. The log P values were measured at pH 7.4 in PBS. The log P value of ^64Cu-AmBaSar is −2.6, and the corresponding value of ^64Cu-DOTA is −2.3. Both ^64Cu-AmBaSar and ^64Cu-DOTA are hydrophilic.
The partition coefficient value was expressed as log P. Log P of ^64Cu-AmBaSar or ^64Cu-DOTA was determined by measuring the distribution of radioactivity in 1-octanol and PBS. A 5 μL sample of ^64Cu-AmBaSar or ^64Cu-DOTA in PBS was added to a vial containing 1 mL each of 1-octanol and PBS. After vortexing for 5 min, the vial was centrifuged for 5 min to ensure complete separation of layers. Then, 5 μL of each layer was pipetted into other test tubes and radioactivity was measured using a gamma counter (Packard). The measurement was repeated three times.

Data set [6] is described as follows: MicroPET imaging of radiolabeled BFCs in Balb/c mice. It is filed as in vivo. The conditions noted are these: between 30 min and 2 hours, micro-PET region of interest quantification. How it is done:
MicroPET imaging and biodistribution studies were performed with the non-targeted ^64Cu-AmBaSar and ^64Cu-DOTA complexes to allow a comparison of their base-line organ uptake and clearance properties. After 30 min, the radioactivity quickly cleared from muscle and blood, and mainly localized in the bladder and kidneys. Regarding ^64Cu-DOTA, the radioactivity mainly localized in the bladder, kidneys, and liver.
MicroPET imaging and biodistribution of the radiolabeled BFCs were performed on Balb/c mice to evaluate their in vivo properties. Animals (Balb/c, n=2) were injected with 0.3 mCi ^64Cu-AmBaSar or ^64Cu-DOTA through the tail vein. PET imaging (10-min static scans) was performed using a microPET R4 scanner (Concorde Microsystems, Inc, Knoxville, Tenn.), with 120 transaxial planes and spatial resolution of 1.2 mm, at 30 min and 2 h postinjection. The microPET data were reconstructed using the ordered subsets expectation maximization (OSEM) algorithm using the microPET Manager Software (CTI Concorde Microsystems, Inc, Knoxville, Tenn.). Images were then analyzed using the Acquisition Sinogram Image Processing (ASIPro) software (CTI Concorde Microsystems, Inc, Knoxville, Tenn.).

Data set [7] in a line: Biodistribution of radiolabeled BFCs in Balb/c mice. Type of data set: in vivo. On the procedure: The biodistribution of ^64Cu-AmBaSar and ^64Cu-DOTA were assessed in Balb/c mice. Each animal was sacrificed at the time interval 2 h and the organs dissected. The values of percent injected dose/gram (ID/g %) in different organs were compared and illustrated in FIG. 13. The ^64Cu-AmBaSar cleared rapidly from the blood and predominantly through the kidneys. After 2 h, the kidney and liver uptake reached 1.09±0.27, 0.14±0.01% ID/g, respectively, which is consistent with the excretion pattern from the microPET imaging results. The ^64Cu-DOTA cleared through the kidney and liver, with uptake reached 1.28±0.41, 1.25±0.09, respectively, by 2 h.
For biodistribution studies, one group of mice (Balb/c, n=3) was injected intravenously with the radiotracer ^64Cu-AmBaSar (10 μCi, 100 μL). Another group of mice was injected similarly with ^64Cu-DOTA (10 μCi, 100 μL). Activity injected into each mouse was measured in a dose calibrator (Capintec). After inhalation anesthesia, animals were sacrificed at 2 h postinjection. Tissues and organs of interest were separated and weighed. Radioactivity in each organ was measured using a gamma counter, and radioactivity uptake was expressed as % ID/g. Mean uptake (% ID/g) for each group of animals was calculated with standard deviations.

[8] abbreviates: 2 h postinjection, Balb/c mice, i.v.

Molecules are shown by their SMILES.

By tissue uptake is commonly meant the percentage of the injected dose found per gram of tissue. One may read the log P as the decadic logarithm of the partition coefficient of the neutral form, usually between octanol and water.

Regarding `N=C(N)NCCC[C@@H]1NC(=O)[C@H](CCCCNC(=O)CN2CCN(CC(=O)O)CCN(CC(=O)O)CCN(CC(=O)O)CC2)NC(=O)[C@@H](Cc2ccc(O)cc2)NC(=O)[C@H](CC(=O)O)NC(=O)CNC1=O` [^64Cu-DOTA-RGD, metal not drawn], in data set [1], the “binding to U87 MG cells in presence of excess cold cyclic RGD peptide” value is “efficiently blocked”. In addition, the tissue uptake at 1 h is 2.28 ± 1.08 %ID/g in data set [2] (liver uptake) and 1.52 ± 0.46 %ID/g in data set [2] (renal uptake). In addition, the tissue uptake at 2 h in data set [2] (liver uptake) came out at 2.31 ± 1.34 %ID/g; in data set [2] (renal uptake), 1.33 ± 0.23 %ID/g. Further, the tissue uptake at 4 h came out at 2.15 ± 0.9 %ID/g in data set [2] (liver uptake) and 1.55 ± 0.61 %ID/g in data set [2] (renal uptake). The tissue uptake at 20 h was 2.52 ± 1.43 %ID/g in data set [2] (liver uptake), 1.58 ± 0.13 %ID/g in data set [2] (renal uptake), 0.98 ± 0.4 %ID/g in data set [4] (kidneys uptake) and 2.16 ± 0.85 %ID/g in data set [4] (liver uptake). Besides, the “uptake in U87 MG tumors” value in data set [3] (1 h p.i.) was found to be 2.03±0.10 % ID/g; in data set [3] (2 h p.i.), 1.97±0.05 % ID/g; in data set [3] (4 h p.i.) it was 1.88±0.29 % ID/g; in data set [3] (20 h p.i.) it was 0.88±0.07 % ID/g. Moreover, in data set [3] (mouse, in vivo), the “liver uptake compared with 64Cu-AmBaSar-RGD” value is recorded as 2-3 times.

For `O=C([O-])CN1CCN(CC(=O)[O-])CCN(CC(=O)O)CCN(CC(=O)O)CC1.[64Cu+2]` [^64Cu-DOTA], the “log P” value in data set [5] is −2.3. For the same compound, the “decrease of renal activity” value in data set [6] worked out at 66%. Also, the “liver uptake relative to 64Cu-AmBaSar” value in data set [7] (2 h post injection) is recorded as “eight times higher”. Moreover, in data set [7] (setting [8]), the kidney uptake is recorded as 1.28±0.41 % ID/g and the liver uptake worked out at 1.25±0.09 % ID/g.
